Measured values published in patent WO2018237338A1 (dated 2018).
Where a chain is given by its changes, count along the chain named. Numbers in names are those of the source.

B1: 2F09/35.21.17.2 (bispecific antibody, human IgG1, kappa)
heavy 1: EVHVKQSGPELVEPGASVKISCKTSGYTFASYAISWVKQRTGQGLEWIGEIYPGSGDTYYDEKFKGKATLTADKSSSTAYMELRSLTSEDSAVYFCASDYDAYWGQGTLVTVSAASTKGPSVFPLAPSSKSTSGGTAALGCLVKDYFPEPVTVSWNSGALTSGVHTFPAVLQSSGLYSLSSVVTVPSSSLGTQTYICNVNHKPSNTKVDKKVEPKSCDKTHTCPPCPAPELLGGPSVFLFPPKPKDTLMISRTPEVTCVVVDVSHEDPEVKFNWYVDGVEVHNAKTKPREEQYNSTYRVVSVLTVLHQDWLNGKEYKCKVSNKALPAPIEKTISKAKGQPREPQVYTLPPSRDELTKNQVSLWCLVKGFYPSDIAVLWESYGTEWASYKTTPPVLDSDGSFFLYSKLTVTKEEWQQGFVFSCSVMHEALHNHYTQKSLSLSPGK
heavy 2: not shown
light: DIVLTQTPLSLPVSLGDQASISCRSSQSLVHRNGNTYLHWYLQKPGQSPKLLIYRISNRFSGVPDRFSGSGSGTDFTLKISRVEAEDLGVYFCSQSTHVPLTFGAGTKLEIKRTVAAPSVFIFPPSDEQLKSGTASVVCLLNNFYPREAKVQWKVDNALQSGNSQESVTEQDSKDSTYSLSSTLTLSKADYEKHKVYACEVTHQGLSSPVTKSFNRGEC
notes: Knob:hole:light chain were co-transfected 1:1:2
B2: Clone 2F10 (antibody, human IgG1, V domains shown)
VH: EVKLQESGPGLVKPSQSLSLTCSVTGYSITSGYYWNWIRQFPGNKLEWLGYISDDGRNNYNPSLKNRISITRDTSKNQLFLKLNSVTTEDTATYYCVRGDYGPWGQGTTVTVSS
VL: DVVMTQTPLTLSVTIGQPAFISCKSNQSLLDYDGETYLNWLFLRPGQSPKRLIYLVSKQDSGVPDRFTGIGSGTDFTLKINRVEAEDLGIYYCWQGTHFPQTFGGGTKLELK
notes: Biacore: mouse variable regions with human IgG1 and kappa constant regions; A mouse IgG version was also used elsewhere
B3: Clone 2D02 (antibody, V domains shown)
VH: EVKLQESGPGLVKPSQSLSLTCSVTGYSITSGYYWNWIRQFPGNKLEWLGFISSDGNSDYNPSLKNRISVTRDTSKNQFFLQLNSVTTEDTATYYCLRGDVDWGQGTTLTVSS
VL: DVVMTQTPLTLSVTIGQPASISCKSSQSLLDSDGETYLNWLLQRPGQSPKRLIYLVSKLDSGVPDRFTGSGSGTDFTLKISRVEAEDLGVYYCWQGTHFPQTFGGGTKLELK
notes: Biacore: mouse variable regions with human IgG1 and kappa constant regions
B4: Clone 2F09 (antibody, V domains shown)
VH: EVHVKQSGPELVEPGASVKISCKTSGYTFASYAISWVKQRTGQGLEWIGEIYPGSGDTYYDEKFKGKATLTADKSSSTAYMELRSLTSEDSAVYFCASDYDAYWGQGTLVTVSA
VL: DIVLTQTPLSLPVSLGDQASISCRSSQSLVHRNGNTYLHWYLQKPGQSPKLLIYRISNRFSGVPDRFSGSGSGTDFTLKISRVEAEDLGVYFCSQSTHVPLTFGAGTKLEIK
notes: Mouse variable regions with human IgG1 and kappa constant regions
B5: Clone 1F06 (antibody, V domains shown)
VH: EVKLVESGGGLVKPGGSLKLSCAASGFIFSDYGMHWVRQAPEKGLEWIAFISSGNNTVYYADTVKGRFTISRDSAKKTLFLQMTSLRSEDTAMYYCVRHSNFCDYWGQGTSVTVSS
VL: DVQMTQTPLSLPVSLGDQASISCRSSQSIVHSNGNTYLEWYLQKPGQSPKLLIYKVSNRFSGVPDRFSGSGSGTDFTLKISRVEAEDLGVYYCFQGSHVPPTFGAGTKLELK
notes: also called antibody 1F06
B6: Clone 1F06 C99M (antibody, human IgG1, V domains shown)
VH: B5 VH with C103M
VL: B5 VL
notes: Human IgG1/kappa chimeric format like 1F06; C99 (Kabat, CDR-H3) is replaced by Met; also called 1F06 C99M variant; C99M variant of 1F06
B7: Clone 3C02 (antibody, human IgG1, V domains shown)
VH: EVKLLESGGGLVQPGGSLKLSCAASGFTFSDYGMHWVRQAPEKGLEWIAYISRGSSAIYYADAVKGRFTISRDNAKNTLFLQMTSLRSEDTAMYYCRSPLRYFDVWGTGTSVTVSS
VL: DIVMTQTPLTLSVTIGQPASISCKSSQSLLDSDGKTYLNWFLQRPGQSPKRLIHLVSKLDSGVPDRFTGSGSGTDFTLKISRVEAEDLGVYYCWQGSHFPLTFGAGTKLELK
notes: as for B4
B8: 1F4/35.21.17.2 (bispecific antibody, human IgG1, kappa)
heavy 1: EVQLVESGGGLVQPKGSLKLSCAASGFSFNTYAMNWVRQAPGKGLEWVARIRTKSNNYATYYADSVKDRFTISRDDSESKFHLQMNNLKTEDTAIYYCVRQGIDFYAMDYWGQGTSVTVSSASTKGPSVFPLAPSSKSTSGGTAALGCLVKDYFPEPVTVSWNSGALTSGVHTFPAVLQSSGLYSLSSVVTVPSSSLGTQTYICNVNHKPSNTKVDKKVEPKSCDKTHTCPPCPAPELLGGPSVFLFPPKPKDTLMISRTPEVTCVVVDVSHEDPEVKFNWYVDGVEVHNAKTKPREEQYNSTYRVVSVLTVLHQDWLNGKEYKCKVSNKALPAPIEKTISKAKGQPREPQVYTLPPSRDELTKNQVSLWCLVKGFYPSDIAVLWESYGTEWASYKTTPPVLDSDGSFFLYSKLTVTKEEWQQGFVFSCSVMHEALHNHYTQKSLSLSPGK
heavy 2: not shown
light: DVLMTQSPLSLSVSLGDQASISCRSSRDIVHSNGNTYLEWYLQKPGQSPKLLIYKVSNRFSGVPDRFSGSGSGTDFTLKISRVEAEDLGVYYCFQGTLIPLTFGAGTKLELKRTVAAPSVFIFPPSDEQLKSGTASVVCLLNNFYPREAKVQWKVDNALQSGNSQESVTEQDSKDSTYSLSSTLTLSKADYEKHKVYACEVTHQGLSSPVTKSFNRGEC

Tests used:
[1] = biological target: human alpha-synuclein protein (full-length; monomer/oligomer form not specified at the place) (human, UniProt P37840 1-140); test: SPR (Biacore T200), protein captured by anti-human-Fc on a CM5 chip, recombinant alpha-synuclein injected (Table 14)
[2] = biological target: T1, human alpha-synuclein protein, monomeric (human, UniProt P37840 1-140); test: SPR (Biacore), full-cycle kinetics: IgG captured on anti-human Fc CM5 chip, alpha-synuclein monomer injected, 1:1 Langmuir fit
[3] = biological target: T1, human alpha-synuclein protein, monomeric; test: SPR (Biacore)
[4] = biological target: T1, human alpha-synuclein protein, monomeric; test: SPR (Biacore), single-cycle kinetics, alpha-synuclein monomer

| Binder | Kd [2] [nM] | koff [2] [s⁻¹] | kon [2] [M⁻¹ s⁻¹] | other results |
| --- | --- | --- | --- | --- |
| B1 |  |  |  | binding result [1]: binds |
| B2 | 6.7 | 0.00067 | 100000 |  |
| B3 | 6.38 | 0.0003 | 47000 |  |
| B4 | 1.63 | 0.0015 | 920000 |  |
| B5 |  |  |  | binding result [3]: binds |
| B6 |  |  |  | binding result [4]: binds |
| B7 | 29.3 | 0.0012 | 41000 |  |
| B8 |  |  |  | binding result [1]: binds |
